Laboratory results: patent publication US20250218531A1 (ABSCI, published 2025)
Where a chain is given by its changes, count along the chain named. “And” between values parts separate entries of the source, which are not always exact repeats. Equal entries are not always repeated.

B1: Trastuzumab HCDR3 variant VRGYGYNFYYHGFSY (Fab, V domains shown)
VH: EVQLVESGGGLVQPGGSLRLSCAASGFNIKDTYIHWVRQAPGKGLEWVARIYPTNGYTRYADSVKGRFTISADTSKNTAYLQMNSLRAEDTAVYYCVRGYGYNFYYHGFSYWGQGTLVTVSS
VL: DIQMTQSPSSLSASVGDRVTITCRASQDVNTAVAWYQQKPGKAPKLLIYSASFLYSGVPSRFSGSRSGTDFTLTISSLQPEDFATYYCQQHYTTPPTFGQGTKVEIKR
B2: Trastuzumab HCDR3 variant ARSGGHGVNGHWRSF (Fab, V domains shown)
VH: EVQLVESGGGLVQPGGSLRLSCAASGFNIKDTYIHWVRQAPGKGLEWVARIYPTNGYTRYADSVKGRFTISADTSKNTAYLQMNSLRAEDTAVYYCARSGGHGVNGHWRSFWGQGTLVTVSS
VL: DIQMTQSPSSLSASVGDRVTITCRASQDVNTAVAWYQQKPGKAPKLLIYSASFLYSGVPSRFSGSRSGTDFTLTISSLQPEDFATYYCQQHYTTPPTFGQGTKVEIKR
B3: Trastuzumab HCDR3 variant AYTGAPHGGYHYYAY (Fab, V domains shown)
VH: EVQLVESGGGLVQPGGSLRLSCAASGFNIKDTYIHWVRQAPGKGLEWVARIYPTNGYTRYADSVKGRFTISADTSKNTAYLQMNSLRAEDTAVYYCAYTGAPHGGYHYYAYWGQGTLVTVSS
VL: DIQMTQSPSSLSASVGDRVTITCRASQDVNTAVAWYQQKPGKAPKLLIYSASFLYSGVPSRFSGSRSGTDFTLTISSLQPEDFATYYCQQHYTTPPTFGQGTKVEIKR
B4: Trastuzumab HCDR3 variant ARYYYDYGYYFDV (Fab, V domains shown)
VH: EVQLVESGGGLVQPGGSLRLSCAASGFNIKDTYIHWVRQAPGKGLEWVARIYPTNGYTRYADSVKGRFTISADTSKNTAYLQMNSLRAEDTAVYYCARYYYDYGYYFDVWGQGTLVTVSS
VL: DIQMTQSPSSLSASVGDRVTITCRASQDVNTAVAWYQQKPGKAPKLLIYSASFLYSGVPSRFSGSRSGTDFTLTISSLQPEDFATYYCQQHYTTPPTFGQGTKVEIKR
B5: Trastuzumab HCDR3 variant ATGSGGGGFSYGY (Fab, V domains shown)
VH: EVQLVESGGGLVQPGGSLRLSCAASGFNIKDTYIHWVRQAPGKGLEWVARIYPTNGYTRYADSVKGRFTISADTSKNTAYLQMNSLRAEDTAVYYCATGSGGGGFSYGYWGQGTLVTVSS
VL: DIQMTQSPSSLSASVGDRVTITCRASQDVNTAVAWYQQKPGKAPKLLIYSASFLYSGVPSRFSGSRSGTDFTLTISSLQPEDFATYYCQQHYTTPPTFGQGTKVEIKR
B6: Trastuzumab HCDR3 variant SRYYDYNYYFMDY (Fab, V domains shown)
VH: B4 VH with A97S, Y101D, D102Y, Y103N, G104Y, Y106F, F107M, V109Y
VL: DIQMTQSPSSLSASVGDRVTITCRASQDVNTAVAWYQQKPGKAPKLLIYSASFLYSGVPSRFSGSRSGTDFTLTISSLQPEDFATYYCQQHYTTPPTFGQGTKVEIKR
B7: Trastuzumab HCDR3 variant VRYPEVYGYYFDY (Fab, V domains shown)
VH: B4 VH with A97V, Y100P, Y101E, D102V, V109Y
VL: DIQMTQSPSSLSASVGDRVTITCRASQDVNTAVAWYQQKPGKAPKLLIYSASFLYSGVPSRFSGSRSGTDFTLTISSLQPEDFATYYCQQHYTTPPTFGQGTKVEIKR
B8: Trastuzumab HCDR3 variant AVYGPYGGFSYDS (Fab, V domains shown)
VH: B5 VH with T98V, G99Y, S100G, G101P, G102Y, G108D, Y109S
VL: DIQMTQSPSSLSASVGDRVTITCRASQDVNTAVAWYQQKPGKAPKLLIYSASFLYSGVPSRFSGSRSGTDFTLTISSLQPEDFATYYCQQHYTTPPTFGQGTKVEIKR
B9: Trastuzumab HCDR3 variant TRYYGDGYYDFDY (Fab, V domains shown)
VH: B4 VH with A97T, Y101G, Y103G, G104Y, Y106D, V109Y
VL: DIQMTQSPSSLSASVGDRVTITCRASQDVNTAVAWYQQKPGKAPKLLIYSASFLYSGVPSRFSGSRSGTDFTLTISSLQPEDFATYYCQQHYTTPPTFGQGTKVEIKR
B10: Trastuzumab HCDR3 variant ASYYAPGSYGFDP (Fab, V domains shown)
VH: B4 VH with R98S, Y101A, D102P, Y103G, G104S, Y106G, V109P
VL: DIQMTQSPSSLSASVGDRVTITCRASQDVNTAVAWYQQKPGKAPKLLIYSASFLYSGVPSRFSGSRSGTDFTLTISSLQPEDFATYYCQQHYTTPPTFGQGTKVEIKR
B11: Trastuzumab HCDR3 variant ATGYGYLLYSDHD (Fab, V domains shown)
VH: B5 VH with S100Y, G102Y, G103L, G104L, F105Y, Y107D, G108H, Y109D
VL: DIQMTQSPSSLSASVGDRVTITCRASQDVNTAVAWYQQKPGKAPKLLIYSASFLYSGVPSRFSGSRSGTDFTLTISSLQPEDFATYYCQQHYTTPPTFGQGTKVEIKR
B12: Trastuzumab HCDR3 variant ATSGSVDRYDYVY (Fab, V domains shown)
VH: B5 VH with G99S, S100G, G101S, G102V, G103D, G104R, F105Y, S106D, G108V
VL: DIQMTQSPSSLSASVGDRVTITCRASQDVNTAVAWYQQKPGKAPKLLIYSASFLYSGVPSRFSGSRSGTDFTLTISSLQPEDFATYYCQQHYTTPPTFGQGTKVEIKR
B13: Trastuzumab HCDR3 variant TRYRGAHGYYFDY (Fab, V domains shown)
VH: B4 VH with A97T, Y100R, Y101G, D102A, Y103H, V109Y
VL: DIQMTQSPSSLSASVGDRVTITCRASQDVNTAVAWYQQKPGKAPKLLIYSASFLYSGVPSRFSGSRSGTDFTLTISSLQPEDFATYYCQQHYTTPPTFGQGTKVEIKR
B14: Trastuzumab HCDR3 variant TRYYGGYGYYFDY (Fab, V domains shown)
VH: B4 VH with A97T, Y101G, D102G, V109Y
VL: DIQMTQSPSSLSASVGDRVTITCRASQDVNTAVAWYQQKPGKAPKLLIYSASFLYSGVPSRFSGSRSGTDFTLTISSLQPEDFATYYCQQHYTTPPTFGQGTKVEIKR
B15: Trastuzumab HCDR3 variant ASYGSGSYFSFPL (Fab, V domains shown)
VH: B5 VH with T98S, G99Y, S100G, G101S, G103S, G104Y, Y107F, G108P, Y109L
VL: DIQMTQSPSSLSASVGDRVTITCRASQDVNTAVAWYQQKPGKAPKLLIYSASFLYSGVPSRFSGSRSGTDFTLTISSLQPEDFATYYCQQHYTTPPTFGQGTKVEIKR
B16: Trastuzumab HCDR3 variant SYPDFGYYVYFAY (Fab, V domains shown)
VH: B4 VH with A97S, R98Y, Y99P, Y100D, Y101F, D102G, G104Y, Y105V, D108A, V109Y
VL: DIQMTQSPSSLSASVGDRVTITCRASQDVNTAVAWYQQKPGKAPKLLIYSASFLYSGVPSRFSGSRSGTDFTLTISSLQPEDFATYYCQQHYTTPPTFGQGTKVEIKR
B17: Trastuzumab HCDR3 variant ASSGRLDLYDFRL (Fab, V domains shown)
VH: B4 VH with R98S, Y99S, Y100G, Y101R, D102L, Y103D, G104L, Y106D, D108R, V109L
VL: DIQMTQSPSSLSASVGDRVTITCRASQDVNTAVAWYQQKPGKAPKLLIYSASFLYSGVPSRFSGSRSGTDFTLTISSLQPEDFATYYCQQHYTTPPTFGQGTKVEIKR
B18: Trastuzumab HCDR3 variant SRYGRGVYYYFDY (Fab, V domains shown)
VH: B4 VH with A97S, Y100G, Y101R, D102G, Y103V, G104Y, V109Y
VL: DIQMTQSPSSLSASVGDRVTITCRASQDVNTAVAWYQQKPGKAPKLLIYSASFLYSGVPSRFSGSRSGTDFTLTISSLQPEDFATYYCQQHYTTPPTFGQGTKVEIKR
B19: Trastuzumab HCDR3 variant ASVDLGGFYDFRY (Fab, V domains shown)
VH: B5 VH with T98S, G99V, S100D, G101L, G104F, F105Y, S106D, Y107F, G108R
VL: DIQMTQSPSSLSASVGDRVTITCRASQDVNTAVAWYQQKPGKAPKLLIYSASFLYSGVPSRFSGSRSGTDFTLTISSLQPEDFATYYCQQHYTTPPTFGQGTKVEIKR
B20: Trastuzumab HCDR3 variant TRWRWGYGYYFDF (Fab, V domains shown)
VH: B4 VH with A97T, Y99W, Y100R, Y101W, D102G, V109F
VL: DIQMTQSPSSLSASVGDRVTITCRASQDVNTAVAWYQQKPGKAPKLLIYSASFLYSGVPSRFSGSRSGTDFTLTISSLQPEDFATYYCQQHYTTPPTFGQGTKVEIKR
B21: Trastuzumab HCDR3 variant ARDGHYFTYDY (Fab, V domains shown)
VH: EVQLVESGGGLVQPGGSLRLSCAASGFNIKDTYIHWVRQAPGKGLEWVARIYPTNGYTRYADSVKGRFTISADTSKNTAYLQMNSLRAEDTAVYYCARDGHYFTYDYWGQGTLVTVSS
VL: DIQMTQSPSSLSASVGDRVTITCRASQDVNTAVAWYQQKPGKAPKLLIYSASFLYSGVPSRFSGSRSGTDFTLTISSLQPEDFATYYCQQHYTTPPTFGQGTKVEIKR
B22: Trastuzumab HCDR3 variant AAWYSTYYFDY (Fab, V domains shown)
VH: B21 VH with R98A, D99W, G100Y, H101S, Y102T, F103Y, T104Y, Y105F
VL: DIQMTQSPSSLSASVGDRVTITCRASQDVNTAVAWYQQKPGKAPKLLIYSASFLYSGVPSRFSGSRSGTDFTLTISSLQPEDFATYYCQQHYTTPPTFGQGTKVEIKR
B23: Trastuzumab HCDR3 variant AINLRGYWMDN (Fab, V domains shown)
VH: B21 VH with R98I, D99N, G100L, H101R, Y102G, F103Y, T104W, Y105M, Y107N
VL: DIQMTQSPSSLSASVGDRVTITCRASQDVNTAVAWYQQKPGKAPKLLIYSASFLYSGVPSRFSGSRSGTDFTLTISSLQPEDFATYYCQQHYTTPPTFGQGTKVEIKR

target: human epidermal growth factor receptor 2 (HER2) extracellular domain (human, UniProt P04626 23-629); experiment: SPR

| Binder | Kd | log(KD (M)) |
| --- | --- | --- |
| B1 | 147 nM and 146 nM | -6.83 log(M) |
| B2 | 49.8 nM | -7.3 log(M) |
| B3 | 49.4 nM | -7.31 log(M) |
| B4 | 30 nM | -7.52 log(M) |
| B5 | 182 nM | -6.74 log(M) |
| B6 | 141 nM | -6.85 log(M) |
| B7 | 36.3 nM | -7.44 log(M) |
| B8 | 70.7 nM | -7.15 log(M) |
| B9 | 29.2 nM | -7.53 log(M) |
| B10 | 135 nM | -6.87 log(M) |
| B11 | 171 nM | -6.77 log(M) |
| B12 | 155 nM | -6.81 log(M) |
| B13 | 35.5 nM | -7.45 log(M) |
| B14 | 41.6 nM | -7.38 log(M) |
| B15 | 53.9 nM | -7.27 log(M) |
| B16 | 36.8 nM | -7.43 log(M) |
| B17 | 171 nM | -6.77 log(M) |
| B18 | 79.7 nM | -7.1 log(M) |
| B19 | 46.1 nM | -7.34 log(M) |
| B20 | 78.1 nM | -7.11 log(M) |
| B21 | 45.1 nM | -7.35 log(M) |
| B22 | 49.4 nM | -7.31 log(M) |
| B23 | 41.5 nM | -7.38 log(M) |
